Data taken from patent US20180155451A1 (published 2018).

T1: FcγRIIa R (human, UniProt P12318 34-217)
T1 construct: extracellular domain; Soluble extracellular domain with C-terminal His tag, expressed in FreeStyle293 cells; also called FcgRIIa R; FcγRIIa type R; not shown: His tag attached to the C terminus
T1 sequence (looked up): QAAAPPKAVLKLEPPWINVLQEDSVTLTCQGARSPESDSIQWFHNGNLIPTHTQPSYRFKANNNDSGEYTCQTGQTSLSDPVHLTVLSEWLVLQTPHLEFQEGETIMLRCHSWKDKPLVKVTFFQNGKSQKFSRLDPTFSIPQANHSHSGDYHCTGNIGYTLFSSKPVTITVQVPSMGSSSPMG

B1: GpH7-A5/GpH7-B3 variant K334_14T/GpL16-k0 (antibody, human IgG1, kappa)
heavy 1: not shown
heavy 2: not shown
light: DIVMTQSPLSLPVTPGEPASISCQASESLVHSNRNTYLHWYLQKPGQSPQLLIYKVSNRFSGVPDRFSGSGSGTDFTLKISRVEAEDVGVYYCSQNTHVPPTFGQGTKVEIERTVAAPSVFIFPPSDEQLKSGTASVVCLLNNFYPREAKVQWKVDNALQSGNSQESVTEQDSKDSTYSLSSTLTLSKADYEKHKVYACEVTHQGLSSPVTKSFNRGEC
notes: heterodimerized; mutation in one H chain only; also called He Ab
B2: GpH7-A5/GpH7-B3 variant K334_18N/GpL16-k0 (antibody, human IgG1, kappa)
heavy 1: not shown
heavy 2: not shown
light: B1 light
notes: as for B1
B3: GpH7-A5/GpH7-B3 variant S267_02A/GpL16-k0 (antibody, human IgG1, kappa)
heavy 1: not shown
heavy 2: not shown
light: B1 light
notes: as for B1
B4: GpH7-A5/GpH7-B3 variant G236_09D/GpL16-k0 (antibody, human IgG1, kappa)
heavy 1: not shown
heavy 2: not shown
light: B1 light
notes: as for B1
B5: GpH7-A5/GpH7-B3 variant T335_09D/GpL16-k0 (antibody, human IgG1, kappa)
heavy 1: not shown
heavy 2: not shown
light: B1 light
notes: as for B1
B6: GpH7-A5/GpH7-B3 variant K326_19Q/GpL16-k0 (antibody, human IgG1, kappa)
heavy 1: not shown
heavy 2: not shown
light: B1 light
notes: as for B1
B7: GpH7-A5/GpH7-B3 variant T335_04F/GpL16-k0 (antibody, human IgG1, kappa)
heavy 1: not shown
heavy 2: not shown
light: B1 light
notes: as for B1
B8: GpH7-A5/GpH7-B3 variant K334_15Y/GpL16-k0 (antibody, human IgG1, kappa)
heavy 1: not shown
heavy 2: not shown
light: B1 light
notes: as for B1
B9: GpH7-A5/GpH7-B3 variant H268_18N/GpL16-k0 (antibody, human IgG1, kappa)
heavy 1: not shown
heavy 2: not shown
light: B1 light
notes: as for B1
B10: GpH7-A5/GpH7-B3 variant L328_15Y/GpL16-k0 (antibody, human IgG1, kappa)
heavy 1: not shown
heavy 2: not shown
light: B1 light
notes: as for B1
B11: GpH7-A5/GpH7-B3 variant K326_09D/GpL16-k0 (antibody, human IgG1, kappa)
heavy 1: not shown
heavy 2: not shown
light: B1 light
notes: as for B1
B12: GpH7-A5/GpH7-B3 variant L328_04F/GpL16-k0 (antibody, human IgG1, kappa)
heavy 1: not shown
heavy 2: not shown
light: B1 light
notes: as for B1
B13: GpH7-A5/GpH7-B3 variant T335_18N/GpL16-k0 (antibody, human IgG1, kappa)
heavy 1: not shown
heavy 2: not shown
light: B1 light
notes: as for B1
B14: GpH7-A5/GpH7-B3 variant V266_06M/GpL16-k0 (antibody, human IgG1, kappa)
heavy 1: not shown
heavy 2: not shown
light: B1 light
notes: as for B1
B15: GpH7-A5/GpH7-B3 variant L328_07I/GpL16-k0 (antibody, human IgG1, kappa)
heavy 1: not shown
heavy 2: not shown
light: B1 light
notes: as for B1
B16: GpH7-A5/GpH7-B3 variant G236_10E/GpL16-k0 (antibody, human IgG1, kappa)
heavy 1: not shown
heavy 2: not shown
light: B1 light
notes: as for B1
B17: GpH7-A5/GpH7-B3 variant T335_16H/GpL16-k0 (antibody, human IgG1, kappa)
heavy 1: not shown
heavy 2: not shown
light: B1 light
notes: as for B1
B18: GpH7-A5/GpH7-B3 variant I332_10E/GpL16-k0 (antibody, human IgG1, kappa)
heavy 1: not shown
heavy 2: not shown
light: B1 light
notes: as for B1
B19: GpH7-A5/GpH7-B3 variant K334_16H/GpL16-k0 (antibody, human IgG1, kappa)
heavy 1: not shown
heavy 2: not shown
light: B1 light
notes: as for B1
B20: GpH7-A5/GpH7-B3 variant K326_10E/GpL16-k0 (antibody, human IgG1, kappa)
heavy 1: not shown
heavy 2: not shown
light: B1 light
notes: as for B1
B21: GpH7-A5/GpH7-B3 variant I332_09D/GpL16-k0 (antibody, human IgG1, kappa)
heavy 1: not shown
heavy 2: not shown
light: B1 light
notes: as for B1
B22: GpH7-A5/GpH7-B3 variant K334_07I/GpL16-k0 (antibody, human IgG1, kappa)
heavy 1: not shown
heavy 2: not shown
light: B1 light
notes: as for B1
B23: GpH7-A5/GpH7-B3 variant I332_15Y/GpL16-k0 (antibody, human IgG1, kappa)
heavy 1: not shown
heavy 2: not shown
light: B1 light
notes: as for B1
B24: GpH7-A5/GpH7-B3 variant K326_06M/GpL16-k0 (antibody, human IgG1, kappa)
heavy 1: not shown
heavy 2: not shown
light: B1 light
notes: as for B1
B25: GpH7-A5/GpH7-B3 variant T335_19Q/GpL16-k0 (antibody, human IgG1, kappa)
heavy 1: not shown
heavy 2: not shown
light: B1 light
notes: as for B1
B26: GpH7-A5/GpH7-B3 variant K326_14T/GpL16-k0 (antibody, human IgG1, kappa)
heavy 1: not shown
heavy 2: not shown
light: B1 light
notes: as for B1
B27: GpH7-A5/GpH7-B3 variant H268_10E/GpL16-k0 (antibody, human IgG1, kappa)
heavy 1: not shown
heavy 2: not shown
light: B1 light
notes: as for B1
B28: GpH7-A5/GpH7-B3 variant K334_03V/GpL16-k0 (antibody, human IgG1, kappa)
heavy 1: not shown
heavy 2: not shown
light: B1 light
notes: as for B1

target: T1, FcγRIIa R; assay: SPR (Biacore), antibody captured via antigen peptide, FcγRIIa R as analyte; heterodimerized antibody
Procedure: Analysis of interaction between objective antibody and the FcγR was carried out using Biacore T100 (GE Healthcare). HBS-EP+ (GE Healthcare) was used as the running buffer, and the measurement temperature was set to 25° C. Chips produced by immobilizing the antigen peptide by the amine coupling method to a Series S Sencor Chip CM5 (GE Healthcare), or alternatively, chips produced by allowing preliminarily biotinylated antigen peptides to interact with and immobilize onto a Series S Sensor Chip SA (certified) (GE Healthcare) were used. Antibodies of interest were captured onto an antigen peptide-immobilized chip, and allowed to interact to each FcγR diluted with running buffer. To regenerate and repeatedly use the chip, the antibodies captured on the chip were washed off by reacting 10 mM glycine-HCl, pH 1.5.

He/Con_2aR	Binder
112 % of control (GpH7-A5/GpH7-B3/GpL16-k0 = 100)	B1
112 % of control (GpH7-A5/GpH7-B3/GpL16-k0 = 100)	B2
155 % of control (GpH7-A5/GpH7-B3/GpL16-k0 = 100)	B3
106 % of control (GpH7-A5/GpH7-B3/GpL16-k0 = 100)	B4
110 % of control (GpH7-A5/GpH7-B3/GpL16-k0 = 100)	B5
129 % of control (GpH7-A5/GpH7-B3/GpL16-k0 = 100)	B6
108 % of control (GpH7-A5/GpH7-B3/GpL16-k0 = 100)	B7
108 % of control (GpH7-A5/GpH7-B3/GpL16-k0 = 100)	B8
128 % of control (GpH7-A5/GpH7-B3/GpL16-k0 = 100)	B9
136 % of control (GpH7-A5/GpH7-B3/GpL16-k0 = 100)	B10
148 % of control (GpH7-A5/GpH7-B3/GpL16-k0 = 100)	B11
138 % of control (GpH7-A5/GpH7-B3/GpL16-k0 = 100)	B12
106 % of control (GpH7-A5/GpH7-B3/GpL16-k0 = 100)	B13
150 % of control (GpH7-A5/GpH7-B3/GpL16-k0 = 100)	B14
124 % of control (GpH7-A5/GpH7-B3/GpL16-k0 = 100)	B15
125 % of control (GpH7-A5/GpH7-B3/GpL16-k0 = 100)	B16
108 % of control (GpH7-A5/GpH7-B3/GpL16-k0 = 100)	B17
114 % of control (GpH7-A5/GpH7-B3/GpL16-k0 = 100)	B18
109 % of control (GpH7-A5/GpH7-B3/GpL16-k0 = 100)	B19
148 % of control (GpH7-A5/GpH7-B3/GpL16-k0 = 100)	B20
119 % of control (GpH7-A5/GpH7-B3/GpL16-k0 = 100)	B21
114 % of control (GpH7-A5/GpH7-B3/GpL16-k0 = 100)	B22
110 % of control (GpH7-A5/GpH7-B3/GpL16-k0 = 100)	B23
138 % of control (GpH7-A5/GpH7-B3/GpL16-k0 = 100)	B24
106 % of control (GpH7-A5/GpH7-B3/GpL16-k0 = 100)	B25
134 % of control (GpH7-A5/GpH7-B3/GpL16-k0 = 100)	B26
148 % of control (GpH7-A5/GpH7-B3/GpL16-k0 = 100)	B27
117 % of control (GpH7-A5/GpH7-B3/GpL16-k0 = 100)	B28
